In patent publication US20240132578A1:

What was measured:
Test in all cases: cell-based or functional assay
[1] = biological target: HIV-1 92TH021 envelope protein (Env) on pseudovirus (HIV-1)
[2] = biological target: HIV-1 Env of isolate MGRM-AG-002 (pseudovirus) (HIV-1)
[3] = biological target: HIV-1 Env of isolate MGRM-F1-020 (pseudovirus) (HIV-1)
[4] = biological target: HIV-1 MGRM-C-027 Env (HIV-1)
[5] = biological target: HIV-1 envelope glycoprotein (Env) of isolate 92TH021, subtype AE (HIV-1)
[6] = biological target: HIV-1 envelope glycoprotein (Env) of isolate 92WR020, subtype A (HIV-1)
[7] = biological target: HIV-1 envelope glycoprotein (Env) of isolate 93UG077, subtype A (HIV-1)
[8] = biological target: HIV-1 envelope glycoprotein (Env) of isolate MGRM-AE-002, subtype AE (HIV-1)
[9] = biological target: HIV-1 92RW020 envelope (Env) on pseudovirus (HIV-1)
[10] = biological target: HIV-1 Env of isolate 93TH305, clade B (HIV-1)
[11] = biological target: HIV-1 Env of isolate MGRM-A-013 (clade A pseudovirus) (HIV-1)
[12] = biological target: HIV-1 Env of isolate MGRM-AE-001 (pseudovirus) (HIV-1)
[13] = biological target: HIV-1 Env of isolate MGRM-F1-020 (HIV-1)
[14] = biological target: HIV-1 Env of pseudovirus MGRM-F1-016 (clade F) (HIV-1)
[15] = biological target: HIV-1 MGRM-AE-004 Env (pseudovirus) (HIV-1)
[16] = biological target: HIV-1 MGRM-AG-002 Env (pseudovirus) (HIV-1)
[17] = biological target: HIV-1 MGRM-AG-003 Env (pseudovirus) (HIV-1)
[18] = biological target: HIV-1 MGRM-AG-013 Env (pseudovirus) (HIV-1)
[19] = biological target: HIV-1 envelope glycoprotein (Env) of isolate LAVI_C3 (HIV-1)
[20] = biological target: HIV-1 envelope glycoprotein (Env) of isolate MGRM-C-015 (HIV-1)
[21] = biological target: HIV-1 Env of isolate MGRM-A-001 (pseudovirus) (HIV-1)
[22] = biological target: HIV-1 Env of isolate MGRM-AG-006 (subtype AG) (HIV-1)
[23] = biological target: HIV-1 Env of isolate MGRM-D-001 (pseudovirus) (HIV-1)
[24] = biological target: HIV-1 Env of isolate MGRM-D-013 (pseudovirus) (HIV-1)
[25] = biological target: HIV-1 Env of isolate MGRM-D-021 (pseudovirus) (HIV-1)
[26] = biological target: HIV-1 Env of isolate MGRM-F1-021 (HIV-1)
[27] = biological target: HIV-1 Env of pseudovirus isolate MGRM-C-020 (clade C) (HIV-1)
[28] = biological target: HIV-1 Env of pseudovirus isolate MGRM-C-026 (clade C) (HIV-1)
[29] = biological target: HIV-1 Env of isolate 94 KE 105 (pseudovirus) (HIV-1)
[30] = biological target: HIV-1 Env of isolate 98CN006 (HIV-1)
[31] = biological target: HIV-1 Env of isolate 98CN009 (HIV-1)
[32] = biological target: HIV-1 Env of isolate MG RM-A-008 (pseudovirus) (HIV-1)
[33] = biological target: HIV-1 Env of isolate MGRM-C-017 (subtype C), on pseudovirus (HIV-1)
[34] = biological target: HIV-1 Env of isolate MGRM-D-003 (HIV-1)
[35] = biological target: HIV-1 Env of isolate MGRM-D-004 (HIV-1)
[36] = biological target: HIV-1 Env of pseudovirus isolate MGRM-Chronic-B-003 (clade B) (HIV-1)

Sequence of 4995_E20 (PGT-142) (antibody) (VH): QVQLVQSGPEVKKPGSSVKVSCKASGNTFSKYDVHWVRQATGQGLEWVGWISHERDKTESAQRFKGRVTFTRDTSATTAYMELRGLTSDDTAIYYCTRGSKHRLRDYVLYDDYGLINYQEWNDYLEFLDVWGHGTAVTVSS
Sequence of 4995_E20 (PGT-142) (antibody) (VL): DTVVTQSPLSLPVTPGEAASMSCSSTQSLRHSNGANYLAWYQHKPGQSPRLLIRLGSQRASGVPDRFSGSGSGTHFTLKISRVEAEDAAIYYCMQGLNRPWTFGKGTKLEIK
Sequence of 4970_K22 (PGT-144) (antibody) (VH): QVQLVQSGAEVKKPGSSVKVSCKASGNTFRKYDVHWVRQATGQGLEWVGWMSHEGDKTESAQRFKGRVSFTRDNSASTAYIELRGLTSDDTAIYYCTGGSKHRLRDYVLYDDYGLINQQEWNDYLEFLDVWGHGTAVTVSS
Sequence of 4970_K22 (PGT-144) (antibody) (VL): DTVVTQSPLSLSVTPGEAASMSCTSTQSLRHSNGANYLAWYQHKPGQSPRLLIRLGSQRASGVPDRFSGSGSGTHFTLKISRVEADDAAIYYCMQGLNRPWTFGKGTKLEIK
Sequence of 4980_N08 (PGT-143) (antibody) (VH): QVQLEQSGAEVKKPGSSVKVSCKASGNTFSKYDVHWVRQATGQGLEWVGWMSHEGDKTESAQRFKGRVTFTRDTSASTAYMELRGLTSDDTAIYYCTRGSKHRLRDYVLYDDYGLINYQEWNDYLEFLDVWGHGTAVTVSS
Sequence of 4980_N08 (PGT-143) (antibody) (VL): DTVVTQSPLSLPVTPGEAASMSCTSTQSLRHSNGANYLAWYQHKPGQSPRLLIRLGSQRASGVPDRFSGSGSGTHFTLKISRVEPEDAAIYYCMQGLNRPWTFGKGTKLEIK
Sequence of 4995_P16 (PGT-145) (antibody) (VH): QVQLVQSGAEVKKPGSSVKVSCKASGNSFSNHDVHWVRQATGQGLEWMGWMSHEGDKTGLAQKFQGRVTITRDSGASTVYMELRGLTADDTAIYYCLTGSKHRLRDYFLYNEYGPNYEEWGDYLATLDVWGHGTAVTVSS
Sequence of 4995_P16 (PGT-145) (antibody) (VL): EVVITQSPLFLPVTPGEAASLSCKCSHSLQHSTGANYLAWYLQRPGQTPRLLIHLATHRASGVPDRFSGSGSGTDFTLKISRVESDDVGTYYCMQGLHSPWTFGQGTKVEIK
Sequence of 4993_K13 (PGT-141) (antibody) (VH): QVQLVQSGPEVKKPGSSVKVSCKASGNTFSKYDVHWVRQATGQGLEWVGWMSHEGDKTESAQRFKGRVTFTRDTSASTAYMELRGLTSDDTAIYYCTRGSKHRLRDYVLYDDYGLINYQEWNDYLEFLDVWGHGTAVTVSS

| Substance | IC50 (ug/mL), pseudovirus neutralization [1] [µg/mL] | IC50 (µg/mL), pseudovirus neutralization [2] [µg/mL] | IC50 (µg/mL), pseudovirus neutralization [3] [µg/mL] | IC50, pseudovirus neutralization [4] [µg/mL] | IC50, pseudovirus neutralization [5] [µg/mL] | IC50, pseudovirus neutralization [6] [µg/mL] | IC50, pseudovirus neutralization [7] [µg/mL] | IC50, pseudovirus neutralization [8] [µg/mL] | IC50 (µg/mL), pseudovirus neutralization [13] [µg/mL] | IC50 (µg/mL), pseudovirus neutralization [21] [µg/mL] | IC50, pseudovirus neutralization [22] [µg/mL] | IC50 (µg/mL), pseudovirus neutralization [23] [µg/mL] | IC50 (µg/mL), pseudovirus neutralization [24] [µg/mL] | IC50 (µg/mL), pseudovirus neutralization [25] [µg/mL] | IC50 (µg/mL), pseudovirus neutralization [26] [µg/mL] | IC50, pseudovirus neutralization [27] [µg/mL] | IC50, pseudovirus neutralization [28] [µg/mL] | also measured |
| --- | --- | --- | --- | --- | --- | --- | --- | --- | --- | --- | --- | --- | --- | --- | --- | --- | --- | --- |
| 4858_P08 (PGT-123) (antibody) | > 10 | > 50 | 0.051 | 0.0169 | > 50 | 0.002 | 0.028 | > 50 | – | – | – | – | – | – | – | – | – | – |
| 1496_C09 (PG9) (TCN-109) (antibody) | 0.103 | 0.076 | – | 2.45 | – | – | – | – | 6.4 | – | – | – | – | – | – | – | – | neutralization IC50 [9]: 0.0637 µg/mL; IC50 (µg/ml), pseudovirus neutralization [10]: 2.08 µg/mL; IC50 (µg/ml), pseudovirus neutralization [11]: 0.16 µg/mL; IC50 (µg/mL), pseudovirus neutralization [12]: 20.6 µg/mL; IC50 [14]: 0.58 µg/mL; IC50 (µg/ml), pseudovirus neutralization [15]: 0.01 µg/mL; IC50 (µg/ml), pseudovirus neutralization [16]: 0.04 µg/mL; IC50 (µg/ml), pseudovirus neutralization [17]: 9.71 µg/mL; IC50 (µg/ml), pseudovirus neutralization [18]: 0.23 µg/mL; IC50 (µg/ml), pseudovirus neutralization [19]: 1.45 µg/mL; IC50 (µg/ml), pseudovirus neutralization [20]: 0.5 µg/mL |
| 5114_A19 (PGT-128) (antibody) | – | – | – | – | – | – | – | – | 0.355 | > 50 | 0.009 | 0.138 | 8.85 | 0.014 | > 50 | 5.85 | 0.007 | – |
| 5329_C19 (PGT-136) (antibody) | > 10 | – | – | – | – | – | – | – | 9.31 | > 50 | 29.1 | > 50 | > 50 | > 50 | > 50 | > 50 | 0.006 | – |
| 4838_L06 (PGT-121) (antibody) | > 10 | – | 0.167 | – | > 50 | 0.004 | 0.019 | > 50 | – | – | – | – | – | – | – | – | – | – |
| 4970_K22 (PGT-144) (antibody) | – | – | – | – | – | – | – | – | – | – | – | – | – | – | – | – | – | IC50 (µg/mL), single-round pseudovirus neutralization [29]: 0.29 µg/mL; IC50 (µg/mL), pseudovirus neutralization [30]: > 50 µg/mL; IC50 (µg/mL), pseudovirus neutralization [31]: > 50 µg/mL; IC50 (µg/mL), single-round pseudovirus neutralization [32]: > 50 µg/mL; IC50 (µg/mL), single-round pseudovirus neutralization [12]: > 50 µg/mL; IC50, single-round pseudovirus neutralization [33]: 23 µg/mL; IC50 (µg/mL), pseudovirus neutralization [34]: > 50 µg/mL; IC50 (µg/mL), pseudovirus neutralization [35]: > 50 µg/mL; IC50, pseudovirus neutralization [36]: 7.41 µg/mL |
| 4995_E20 (PGT-142) (antibody) | – | – | – | – | – | – | – | – | – | – | – | – | – | – | – | – | – | IC50 (µg/mL), single-round pseudovirus neutralization [29]: 0.19 µg/mL; IC50 (µg/mL), pseudovirus neutralization [30]: > 50 µg/mL; IC50 (µg/mL), pseudovirus neutralization [31]: 4 µg/mL; IC50 (µg/mL), single-round pseudovirus neutralization [32]: > 50 µg/mL; IC50 (µg/mL), single-round pseudovirus neutralization [12]: > 50 µg/mL; IC50, single-round pseudovirus neutralization [33]: 1.11 µg/mL; IC50 (µg/mL), pseudovirus neutralization [34]: > 50 µg/mL; IC50 (µg/mL), pseudovirus neutralization [35]: > 50 µg/mL; IC50, pseudovirus neutralization [36]: 0.484 µg/mL |
| 5141_B17 (PGT-126) (antibody) | 0.115 | > 50 | > 50 | 1.14 | 0.197 | 0.006 | 0.02 | > 50 | – | – | – | – | – | – | – | – | – | – |
| 5343_B08 (PGT-135) (antibody) | > 10 | – | – | – | – | – | – | – | 0.168 | > 50 | 17.9 | > 50 | > 50 | > 50 | 0.065 | > 50 | 0.004 | – |
| 4995_P16 (PGT-145) (antibody) | – | – | – | – | – | – | – | – | – | – | – | – | – | – | – | – | – | IC50 (µg/mL), single-round pseudovirus neutralization [29]: 1.32 µg/mL; IC50 (µg/mL), pseudovirus neutralization [30]: > 50 µg/mL; IC50 (µg/mL), pseudovirus neutralization [31]: 0.136 µg/mL; IC50 (µg/mL), single-round pseudovirus neutralization [32]: > 50 µg/mL; IC50 (µg/mL), single-round pseudovirus neutralization [12]: 20.9 µg/mL; IC50, single-round pseudovirus neutralization [33]: > 50 µg/mL; IC50 (µg/mL), pseudovirus neutralization [34]: 0.006 µg/mL; IC50 (µg/mL), pseudovirus neutralization [35]: 10.9 µg/mL; IC50, pseudovirus neutralization [36]: 0.045 µg/mL |
| 5145_B14 (PGT-127) (antibody) | – | > 50 | > 50 | – | > 50 | 0.01 | 0.055 | > 50 | – | – | – | – | – | – | – | – | – | – |
| 4877_D15 (PGT-122) (antibody) | > 10 | > 50 | 0.321 | 0.0388 | > 50 | 0.009 | 0.084 | > 50 | – | – | – | – | – | – | – | – | – | – |
| 4980_N08 (PGT-143) (antibody) | – | – | – | – | – | – | – | – | – | – | – | – | – | – | – | – | – | IC50 (µg/mL), single-round pseudovirus neutralization [29]: 0.368 µg/mL; IC50 (µg/mL), pseudovirus neutralization [30]: > 50 µg/mL; IC50 (µg/mL), pseudovirus neutralization [31]: 10.2 µg/mL; IC50 (µg/mL), single-round pseudovirus neutralization [32]: > 50 µg/mL; IC50 (µg/mL), single-round pseudovirus neutralization [12]: > 50 µg/mL; IC50, single-round pseudovirus neutralization [33]: 5.17 µg/mL; IC50 (µg/mL), pseudovirus neutralization [34]: > 50 µg/mL; IC50 (µg/mL), pseudovirus neutralization [35]: > 50 µg/mL; IC50, pseudovirus neutralization [36]: 0.854 µg/mL |
| PGV04 (antibody) | – | 0.879 | – | – | – | – | – | – | 5.99 | – | – | – | – | – | 0.031 | – | – | IC50 (µg/mL), pseudovirus neutralization [12]: 0.063 µg/mL |
| 5147_N06 (PGT-130) (antibody) | 0.0082 | – | – | 0.0052 | – | – | – | – | 9.73 | > 50 | 0.009 | > 50 | 0.429 | 0.156 | > 50 | > 50 | 0.036 | – |
| 5136_H01 (PGT-131) (antibody) | – | – | – | – | – | – | – | – | > 50 | > 50 | 0.019 | > 50 | 4.14 | 0.106 | > 50 | > 50 | 1.67 | – |
| 4993_K13 (PGT-141) (antibody) | – | – | – | – | – | – | – | – | – | – | – | – | – | – | – | – | – | IC50 (µg/mL), single-round pseudovirus neutralization [29]: 0.204 µg/mL; IC50 (µg/mL), pseudovirus neutralization [30]: > 50 µg/mL; IC50 (µg/mL), pseudovirus neutralization [31]: 1.28 µg/mL; IC50 (µg/mL), single-round pseudovirus neutralization [32]: > 50 µg/mL; IC50 (µg/mL), single-round pseudovirus neutralization [12]: > 50 µg/mL; IC50, single-round pseudovirus neutralization [33]: 4.02 µg/mL; IC50 (µg/mL), pseudovirus neutralization [34]: > 50 µg/mL; IC50 (µg/mL), pseudovirus neutralization [35]: > 50 µg/mL; IC50, pseudovirus neutralization [36]: 0.4 µg/mL |
| 5345_I01 (PGT-137) (antibody) | – | – | – | – | – | – | – | – | 1.93 | > 50 | 28.3 | > 50 | > 50 | > 50 | > 50 | > 50 | 0.011 | – |
| 5123_A06 (PGT-125) (antibody) | 0.0066 | > 50 | > 50 | > 10 | 0.006 | 0.004 | 0.012 | > 50 | – | – | – | – | – | – | – | – | – | – |
